Assay: yeast display, Sf9 membrane polyspecificity reagent, FACS + sequencing; frameworks hold sequencing errors
Outline: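 Genes from sorted yeast were amplified by colony PCR, read by MiSeq 2 × 250 sequencing and filtered on CDR length. These cells carried a synthetic nanobody library in Saccharomyces cerevisiae BJ5465 and were sorted by FACS into low and high (top ~1%) gates on anti-HA and streptavidin fluorescence. Polyreactivity is labelled according to the gate of origin.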

Sequence | polyreactivity (PSR sort gate)
QVQLVESGGGLVQAGGSLRLSCAASGSIFTFYALGWYRQAPGQERELVAAISYSGGSTYYADSVTGRFTISRDNAKITVYLQMNSLKPEDTAVFYCARDYFVDGPGYDYWGQGTQVTVSS | low polyreactivity
QVQLVESGGGLVQAGGSLRLSCAASGLTFKYYAMGWYRQAPGKERELVAAITSTGGRTYYADSVKGRFTISRDNAKNTVYLQMNSLKPEDTAVYYCAAYYVGSSKYDSWGQGTQVTVSS | low polyreactivity
QVQLVESGGGLVQAGGSLRLSCAASGSTFAFYAMGWYRQAPGKERELVAAISRSGGRTYYADSVKGRFTISRDNAKNTVYLQMNSLKPEDTAVYYCAAVFRSGYLRYYYWGQGTQVTVSS | high polyreactivity
QVQLVESGGGLVQAGGSLRLSCAASGRIFRKYTKGWYRQAPGKERELVAAITGTGGSTYYADSVKGRFTISRDNAKNTVYLQMNSLKPEDTAVYYCAADYSARYGFWGLGTQVTVSS | high polyreactivity
QVQLVESGGGLVQAGGSLRLSCAASGRIFGAYAMGWYRQAPGKERELVASITGRGTSTYYADSVKGRFTISRDNAKNTVYLQMNSLKPEDSAVYYCAADKTVRSSNYDYWGQGTQVTVSS | low polyreactivity
QVQLVESGGGLVQAGGSLRLSCAASGLTFDYYAMGWYRQAPGKERELVAAISIGGSTNYADSVKGRFTISRDNAKNNVYLQMNSLKPEDTAVYYCAAQGYLRLRTHFNYWGQGTQVTVSS | low polyreactivity
QVQLVESGGGLVQAGGSLRLSCAASGIIFRRYAMGWYRQAPGKERELVAAISWSGGSTYYADSVKGRFTISRDNAKNTVYLQMNSLKPEDTAVYYCAAAAYTRDEYDYWGQGTQVTVSS | high polyreactivity
QVQLVESGGGLVQAGGSLRLSCAASGRTFFVNAMGWYRQAPGKERELVATITFSGDSTYYADSVKGRFSISRDNAKNTVYLQMNSLKPEDTAVYYCAAYQGQKGYDYWGQGTQVTVSS | high polyreactivity
QVQLVESGGGLVQAGGSLRLSSAASGRTFYANAMGWYRQAPRKERELVAAISSGGITNYADSVKGRFTISRDNAKNTVYLQMNSLKPEDTAVYYCPYDYWGQGTQVTVSS | low polyreactivity
QVQLVESGGGLVQAGGSLRLSCAASGSTFRAYAMGWYRQAPGTEWELVAAISAGGSTNYADSVKGRFTISRDHAKNTVSLQMNCLKRDDTAVYYCAKGWYYVSPYGYRKRVYYWGQGTQVTVSS | high polyreactivity
QVQLVESGGGLVQAGGSLRLSCAASGGIFAPNAMGWYRQAPGKERELVAAISTGGGSTRYADSVKGRFTISRDNAKNTVYLQMNSLKPEDTAVYYCAATRVGVRRMDYWGQGTQVTVSS | low polyreactivity
QVQLVESGGGLVQAGGSLSLICAASRRSFYHYTMGWSRQAPGKERELVAAMTSGGSTYYADSVKGRFTISRDNAKNTVYLQMNSLKPEDTAVYYCARVRPLYDYSRYDYWGQRTQVTVSS | high polyreactivity
QVQLVESGGGLVQAGGSLRLSCAASGRIFGYNAMGWYRLAPGKERELVAAIRSGGSTNYADSVKGRFTISRDNAKNTVYLQMNSLKPEDTAVYYCAADDRWWYTPRPRYNYWGQGTQVTVSS | high polyreactivity
QVQLVESGGGLVQAGGSLRLSCAASGYILPKNTMGWYRQAPGKERESVAVITYSGGSTYYADSVKGRFTISRDNAKNTVYLQMNSLKPEDTAVYYCAADKWYYVRYPTDAYSKFDYWGQGTQVTVSS | low polyreactivity
QVQLVESGGGLVQAGGSLRLSCAASGRTFGGYDMGWYRQAPGKERELVAAISSGGRTYYADSVKGRFTISRDNAKNSVYLQMNSLKPEDTAVYYCAAKYRKWPIDYWGQGTQVTVSS | high polyreactivity
QVHLVESGGGLVQAGGSLRLSCAASASTFLYYAMGWNRQPPGKERELVAVISWSGVSTYYADSVKGRFTSSRDNAKYTVYLQMNSLKPEDTAVYYCNTGNHYIRTYGYWGQGTQVTVSS | low polyreactivity
QVQLVESGGCLVQAGGSLRLSCAASGRTFYINTMGWYRQAPGKEREFVAAIRFSSDSTYYADSVKGRYTISRDNAKNTVYLQMNSLKPEDTAVYYCATRTYAQRYGYWGQGTQVTVSS | high polyreactivity
QVQLVESGAGLFQAGGSLRLSCAASGFTFWWYAMGWYRQAPGKQRELVASISSGGSTNYADSVKGRFTISRDNANNTVYLQMNSLKQVDTAVFYCARRMLYSERYSARWQYVYWGQGTQVNVSS | high polyreactivity
QVQLVESGGGLVQAGGSLRLSCAASGRTLFPNVMGWYRQAPGKERELVAAITTIGGSTYYADSVKGRFTISRDNGKNTVFLQMNSLKPEDTEVYYCNARYRGRGLKFAYWGQGTQVTVSS | high polyreactivity
QVQLVESGGGLVQAGGSLRLSCAASGSIFEGYVMGCDIQAPGKERELVATISFSGGSTYYADSVKGRFTISRDNAKNTVYLQMNSLKPEDTAVYYCNALVYHTKGDYGYWGQGTQVTVSS | low polyreactivity
QVQLVESGGGVVQAGGSLRLTCAASGFTFSYNAMGWYRQAPGKERQLVAAISYSGGSTYYADSVKGRFTISRDTAKNTVYLQMNSLIPEHTAVYYCAAYSYYNYPNRGVYRGYYYWGQGTQGTVSS | high polyreactivity

From the nanobody polyreactivity screen of Harvey et al. (2022)
